Reference: PMC4627819, “Bacillus subtilis Bactofilins Are Essential for Flagellar Hook- and Filament Assembly and Dynamically Localize into Structures of Less than 100 nm Diameter underneath the Cell Membrane” (PLoS ONE, 2015)

B1: BacF carrying a hexa-histidine tag (6-His-BacF) (natural protein, Bacillus subtilis, UniProt P39133 1-235, looked up)
chain: METTKLGNLKLYGAGHAAGGAYHNVSIKGEGIVGEGLSAVGCRIYGTGLFLGKAETERLRVLGESECKGDLTAGKINIYGTMKVSGSLQFDRFNLKGQTEIGGNMTGESCDVKGKLSVIGDCETEMFHVTGCVDVSGLLNSGEIKLGLSHDISHVQEIGGTTITVKRRASFFSRKKGKLIADVIEGDRVYLENTEAAVVRGKEVIIGPGCSIGTIEYEYKCECDPHSQIKEKTKL
notes: Bactofilin BacF, product of yhbF, Bacillus subtilis; full-length yhbF cloned into pET16b or pET24d; also called YhbF; his6-yhbF; source: E. coli BL21 (DE3); also coexpressed with untagged BacE, in cell extract
B2: BacE carrying a hexa-histidine tag (his6-yhbE) (natural protein, Bacillus subtilis, UniProt P39132 1-237, looked up)
chain: MDVVEKLVINGSGSSKGGTFQSVEINGSGTVAGDVECDTFSFNGNGKADGSVKAKAVTISGSGKIHGDVEAESIRMNGTGFIQGEVSAKQLKIAGSSTFGGTVKADGIDISGKAVMEADCETETFQSEGKCKISGLLNADQVIIKLSAGESYAREIGCRHLQVTCRKGMLTLLRLMPQPVLTAELIEGDVIELTNTKAKTVRGNKVIIGPDCQIETVEYSGDYTCDPSASVETSTKL
notes: Bactofilin BacE, product of yhbE, Bacillus subtilis; full-length yhbE cloned into pET16b or pET24d; source: E. coli BL21 (DE3); also coexpressed with untagged BacF, in cell extract

Target: the molecule itself
Experiment: SEC; analytical gel filtration of the purified protein on its own; S200/26-60 column, 20 mM HEPES-Na pH 7.5, 250 mM NaCl, 10 mM KCl, 10 mM MgCl2; fractions analysed by SDS-PAGE

| Protein | binding result |
| --- | --- |
| B1 | binds |
| B2 | binds |
